Source: patent US20200190136A1, “METHODS FOR GENERATING SMALL MOLECULE DEGRADERS AND DIMERIZERS” (DANA-FARBER CANCER INSTITUTE, INC., priority 2017, published 2020)

Key:
[1] = target: His6-DDB1ΔB-His6-CRBN complex (human) (UniProt Q16531); assay: FP lenalidomide-Atto565 displacement from DDB1ΔB-CRBN, dBET23, with and without BRD4BD2
[2] = target: His6-DDB1ΔB-His6-CRBN complex (human) (UniProt Q16531); assay: FP lenalidomide-Atto565 displacement from DDB1ΔB-CRBN, dBET6, with and without BRD4BD2
[3] = target: His6-DDB1ΔB-His6-CRBN complex (human) (UniProt Q16531); assay: FP lenalidomide-Atto565 displacement from DDB1ΔB-CRBN, dBET57, with and without BRD4BD2

Chain of His6-DDB1ΔB-His6-CRBN complex (human) (Q16531 other isoform, or with tags, fused parts or gaps mutant, chain 1 of 2): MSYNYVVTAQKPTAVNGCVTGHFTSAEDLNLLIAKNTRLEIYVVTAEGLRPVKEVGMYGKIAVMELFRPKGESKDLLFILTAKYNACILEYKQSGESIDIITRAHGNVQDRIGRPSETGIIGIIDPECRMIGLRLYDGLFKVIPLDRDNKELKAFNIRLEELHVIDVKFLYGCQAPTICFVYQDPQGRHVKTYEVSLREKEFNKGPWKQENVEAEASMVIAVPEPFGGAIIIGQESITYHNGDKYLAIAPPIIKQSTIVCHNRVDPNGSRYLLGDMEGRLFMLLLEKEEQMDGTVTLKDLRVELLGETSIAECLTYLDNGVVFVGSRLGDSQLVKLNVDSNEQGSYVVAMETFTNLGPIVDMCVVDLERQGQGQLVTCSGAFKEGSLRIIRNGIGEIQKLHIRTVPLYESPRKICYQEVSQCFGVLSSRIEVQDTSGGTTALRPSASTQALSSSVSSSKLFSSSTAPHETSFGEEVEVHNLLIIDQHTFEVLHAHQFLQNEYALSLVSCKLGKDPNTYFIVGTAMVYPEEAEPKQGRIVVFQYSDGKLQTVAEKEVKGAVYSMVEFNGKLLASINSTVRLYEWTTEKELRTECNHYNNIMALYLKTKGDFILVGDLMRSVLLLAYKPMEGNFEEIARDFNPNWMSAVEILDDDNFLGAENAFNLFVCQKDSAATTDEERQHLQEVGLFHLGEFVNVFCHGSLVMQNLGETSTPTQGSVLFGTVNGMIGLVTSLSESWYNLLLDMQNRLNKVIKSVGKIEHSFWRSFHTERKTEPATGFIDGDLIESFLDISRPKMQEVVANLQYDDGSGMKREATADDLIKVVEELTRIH
Chain of His6-DDB1ΔB-His6-CRBN complex (human) (Q96SW2 whole entry, stated change not applied, chain 2 of 2, further chain): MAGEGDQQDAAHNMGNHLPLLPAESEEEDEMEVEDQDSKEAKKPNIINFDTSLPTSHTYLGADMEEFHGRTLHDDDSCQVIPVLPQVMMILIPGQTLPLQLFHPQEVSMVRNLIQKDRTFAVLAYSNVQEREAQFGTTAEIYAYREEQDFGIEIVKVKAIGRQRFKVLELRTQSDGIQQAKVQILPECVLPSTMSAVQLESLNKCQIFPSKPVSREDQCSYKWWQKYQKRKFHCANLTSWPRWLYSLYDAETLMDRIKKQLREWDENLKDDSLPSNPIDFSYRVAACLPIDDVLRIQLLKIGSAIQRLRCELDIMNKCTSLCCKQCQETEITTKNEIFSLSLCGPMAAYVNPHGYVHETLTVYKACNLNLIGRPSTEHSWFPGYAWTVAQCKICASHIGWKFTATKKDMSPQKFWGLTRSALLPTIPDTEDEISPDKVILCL

“BRD4BD2 (second bromodomain of human BRD4) (from UniProt O60885 333-460)” gave an apparent cooperativity factor αapp (IC50[binary]/IC50[ternary]) [1] of under 0.1, an apparent cooperativity factor αapp (IC50[binary]/IC50[ternary]) [2] of 0.2 and an apparent cooperativity factor αapp (IC50[binary]/IC50[ternary]) [3] of under 0.1.
